Results from patent publication US20200239579A1 (Genmab, published 2020).

Tests used:
[1] = biological target: T1, PDLoneECDHisCtag (human, UniProt Q9NZQ7 19-238); test: BLI cross-block, second antibody on PDLoneECDHisCtag held by immobilised 632; bold = blocking
T1 construct: Expressed in HEK-293F cells; theoretical molecular weight 29 kDa; also called recombinant human PD-L1 ECD; human PD-L1 (BLI); not shown: C-terminal His-tag; C-tag
Method: (§1) Antibody cross-block testing was performed using biolayer interferometry (BLI) on an Octet HTX instrument (ForteBio). Antibodies (20 μg/ml in 10 mM sodium acetate buffer pH 6.0 (ForteBio)) were immobilized on Amine-Reactive 2nd Generation (AR2G) biosensors (ForteBio) according to the instructions of the manufacturer. After a baseline (50 s) in Sample Diluent (ForteBio), biosensors containing immobilized antibodies were loaded for 500 s with PDLoneECDHisCtag (100 nM or 2.7 μg/ml), after which the association response of a second antibody (10 μg/ml) was followed for 500 s. Biosensors were regenerated by using 3 times 5 s alternating exposures to 10 mM glycine pH 2.5 and Sample Diluent. The experiment was repeated with a new set of second antibodies starting from the baseline step. Each biosensor was used 6 times. The experiment was performed at 30° C. using a shaker speed of 1000 rpm. Data was analyzed using Data Analysis Software v9.0.0.12 (ForteBio). The Y-axis was aligned to the association step and Savitzky-Golay filtering was applied. The average buffer response was subtracted from the association response of the second antibody in order to correct for the dissociation of PDLoneECDHisCtag from the immobilized antibody. The corrected association responses were plotted in a matrix format.

[2] = biological target: T1, PDLoneECDHisCtag; test: BLI cross-block, second antibody on PDLoneECDHisCtag held by immobilised 547; plain = non-blocking
Method: as §1

[3] = biological target: T1, PDLoneECDHisCtag; test: BLI cross-block, second antibody on PDLoneECDHisCtag held by immobilised 511-LC33S; bold = blocking
Method: as §1

[4] = biological target: T1, PDLoneECDHisCtag; test: BLI cross-block, second antibody on PDLoneECDHisCtag held by immobilised 516; plain = non-blocking
Method: as §1

[5] = biological target: T1, PDLoneECDHisCtag; test: BLI cross-block, second antibody on PDLoneECDHisCtag held by immobilised 421-LC91S; plain = non-blocking
Method: as §1

[6] = biological target: T1, PDLoneECDHisCtag; test: BLI cross-block, second antibody on PDLoneECDHisCtag held by immobilised 476-N101Q-LC33S; bold = blocking
Method: as §1

[7] = biological target: T1, PDLoneECDHisCtag; test: BLI cross-block, second antibody on PDLoneECDHisCtag held by immobilised 338; bold = blocking
Method: as §1

[8] = biological target: T1, PDLoneECDHisCtag; test: BLI cross-block, second antibody on PDLoneECDHisCtag held by immobilised 547; bold = blocking
Method: as §1

[9] = biological target: T1, PDLoneECDHisCtag; test: BLI cross-block, second antibody on PDLoneECDHisCtag held by immobilised 321; bold = blocking
Method: as §1

[10] = biological target: T1, PDLoneECDHisCtag; test: BLI cross-block, second antibody on PDLoneECDHisCtag held by immobilised 516; bold = blocking
Method: as §1

[11] = biological target: T1, PDLoneECDHisCtag; test: BLI cross-block, second antibody on PDLoneECDHisCtag held by immobilised MEDI; bold = blocking
Method: as §1

[12] = biological target: T1, PDLoneECDHisCtag; test: BLI cross-block, second antibody on PDLoneECDHisCtag held by immobilised MPDL; bold = blocking
Method: as §1

[13] = biological target: T1, PDLoneECDHisCtag; test: BLI cross-block, second antibody on PDLoneECDHisCtag held by immobilised 632; plain = non-blocking
Method: as §1

[14] = biological target: T1, PDLoneECDHisCtag; test: BLI cross-block, second antibody on PDLoneECDHisCtag held by immobilised 421-LC91S; bold = blocking
Method: as §1

[15] = biological target: T1, PDLoneECDHisCtag; test: BLI cross-block, second antibody on PDLoneECDHisCtag held by immobilised 511-LC33S; plain = non-blocking
Method: as §1

[16] = biological target: T1, PDLoneECDHisCtag; test: BLI cross-block, second antibody on PDLoneECDHisCtag held by immobilised 476-N101Q-LC33S; plain = non-blocking
Method: as §1

[17] = biological target: T2, human PD-L2 (full length, on CHO cells) (human, UniProt Q9BQ51 20-273); test: flow cytometry on CHO cells expressing human PD-L2
T2 construct: whole, on cells; also called CHO-PD-L2 cells
T2 sequence (looked up): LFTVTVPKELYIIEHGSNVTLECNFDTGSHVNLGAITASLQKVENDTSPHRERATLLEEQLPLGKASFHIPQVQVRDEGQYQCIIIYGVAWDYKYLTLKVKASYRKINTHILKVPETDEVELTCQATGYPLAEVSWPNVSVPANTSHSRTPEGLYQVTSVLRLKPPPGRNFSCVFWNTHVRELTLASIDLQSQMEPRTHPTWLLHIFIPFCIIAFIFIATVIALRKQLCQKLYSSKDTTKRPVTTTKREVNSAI
Method: (§2) Cells (3-5×10⁴ cells/well) were incubated in polystyrene 96-well round-bottom plates (Greiner bio-one, cat. no. 650101) with serial dilutions of antibodies (range 0.0001 to 10 μg/mL in 5-fold dilution steps) in 50 μL PBS/0.1% BSA/0.02% azide (staining buffer) at 4° C. for 30 min.
(§3) After washing twice in staining buffer, cells were incubated in 50 μL secondary antibody at 4° C. for 30 min. As a secondary antibody, R-Phycoerythrin (PE)-conjugated goat-anti-human IgG F(ab′)₂ (Cat. no. 109-116-098, Jackson ImmunoResearch Laboratories, Inc., West Grove, Pa.) diluted 1:500 in staining buffer, was used for all experiments. Next, cells were washed twice in staining buffer, re-suspended in 20 μL staining buffer and analyzed on an iQue screener (Intellicyt Corporation, USA). Binding curves were analyzed using non-linear regression (sigmoidal dose-response with variable slope) using GraphPad Prism V75.04 software (GraphPad Software, San Diego, Calif., USA).
A PE-conjugated PD-L2 specific antibody (Mylteni, clone MIH18; cat. no. 130-098-651) was used as positive control.

[18] = biological target: T3, human PD-L1 (full length, on cells) (human, UniProt Q9NZQ7 19-290); test: flow cytometry on MDA-MB-231 cells, PE anti-human IgG secondary, MFI (PE)
T3 construct: The entry holds the signal peptide; also called CD274; B7H1
Method: as §2, §3

[19] = biological target: T4, cynomolgus monkey PD-L1 (full length, on CHO cells) (cynomolgus monkey (Macaca fascicularis), UniProt G7PSE7 19-290); test: flow cytometry on CHO cells transfected with cynomolgus PD-L1, PE anti-human IgG secondary, MFI (PE)
T4 construct: whole, on cells; also called PDL1 Mf; cynomolgus PD-L1
Method: as §2, §3
Binding to CHO cells expressing cynomolgus PD-L1 was determined by flow cytometry using a method as described above.

T1 sequence (Q9NZQ7 19-238, form in doubt): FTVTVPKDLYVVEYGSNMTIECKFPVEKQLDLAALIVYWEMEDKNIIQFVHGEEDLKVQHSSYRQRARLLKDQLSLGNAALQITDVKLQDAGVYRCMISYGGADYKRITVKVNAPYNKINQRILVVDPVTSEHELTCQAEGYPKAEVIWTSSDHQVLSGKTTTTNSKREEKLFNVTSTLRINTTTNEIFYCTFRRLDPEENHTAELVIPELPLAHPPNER
T4 sequence (G7PSE7 entry or part of it): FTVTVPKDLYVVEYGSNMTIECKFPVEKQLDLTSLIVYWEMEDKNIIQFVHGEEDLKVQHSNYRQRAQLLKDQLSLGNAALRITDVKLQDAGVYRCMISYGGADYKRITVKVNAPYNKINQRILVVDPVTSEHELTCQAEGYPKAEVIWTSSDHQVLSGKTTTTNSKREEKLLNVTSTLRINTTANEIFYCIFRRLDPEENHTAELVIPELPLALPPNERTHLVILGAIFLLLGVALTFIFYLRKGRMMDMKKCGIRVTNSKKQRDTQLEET
T3 sequence (Q9NZQ7 19-290 limits assumed): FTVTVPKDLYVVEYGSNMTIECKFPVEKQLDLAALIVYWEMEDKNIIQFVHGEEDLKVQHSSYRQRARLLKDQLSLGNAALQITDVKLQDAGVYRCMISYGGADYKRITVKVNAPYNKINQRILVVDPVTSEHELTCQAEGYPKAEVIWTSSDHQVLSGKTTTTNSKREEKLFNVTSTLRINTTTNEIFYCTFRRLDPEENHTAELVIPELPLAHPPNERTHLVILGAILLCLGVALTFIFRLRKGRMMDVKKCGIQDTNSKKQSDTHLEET

B1: IgG1-476-N101Q-LC33S-FEAR (antibody, V domains shown)
VH: EVQMLESGGGLVQPGGSLRLSCAASGFTFRSYAMSWVRQAPGKGLEWVSGIGDSGGSTYHADSVKGRFTISRDNSKNTLYLQMNSLRAEDTAVYYCAKLGQSSGWYDHYYYYGMDVWGQGTTVTVSS
VL: SYELTQPPSVSVSPGQTASITCSGDKLGNKYVSWFQQKPGQSPVLVIYRDSERPSGIPERFSGSNSGNTATLTISGTQAVDEADFYCQAWDSSTVVFGGGTKLTVL
association response of the second antibody [1]: 0 nm | association response of the second antibody [2]: 0.8 nm | association response of the second antibody [3]: 0 nm | association response of the second antibody [4]: 1.2 nm | association response of the second antibody [5]: 0.4 nm | association response of the second antibody [6]: 0 nm

B2: IgG1-421-LC91S-FEAR (antibody, V domains shown)
VH: EVQLVESGGGLVQPGRSLRLSCAASGFTFDDYAMHWVRQGPGKGLEWVSGIRWNSGSMHYADSVKGRFTISRDNAKSSLYLQMNSLRAEDTALYYCARAPWYSGAWHPDYWGQGTLVTVSS
VL: QSALTQPRSVSGSPGQSVTISCTGTSSDVGTYNYVSWYQQHPGKAPKLMIYDVIKRPSGVPDRFSGSKSGNTASLTLSGLQAEDEADYYCSSYAGTYTLLFGGGTKLTVL
association response of the second antibody [7]: 0 nm | association response of the second antibody [8]: 0 nm | association response of the second antibody [9]: 0 nm | association response of the second antibody [10]: -0.1 nm | association response of the second antibody [11]: 0 nm | association response of the second antibody [12]: 0 nm | association response of the second antibody [13]: 0.6 nm | association response of the second antibody [14]: 0 nm | association response of the second antibody [15]: 0.6 nm | association response of the second antibody [16]: 0.8 nm

B3: bsIgG1-huCD3-H1L1-FEAL×511-LC33S-FEAR (bispecific antibody)
heavy 1: not shown
VL: not shown
heavy 2: QVQLVQSGSELKKPGASVMVSCKASGYTFTSYVMNWVRQAPGQGLEWMGWINSYTGNPTSAQGFTGRFVFSFDTSVNTAYLQISSLKAEDTAVYYCARGYCTSTSCYLDYWGQGTLVTVSSASTKGPSVFPLAPSSKSTSGGTAALGCLVKDYFPEPVTVSWNSGALTSGVHTFPAVLQSSGLYSLSSVVTVPSSSLGTQTYICNVNHKPSNTKVDKRVEPKSCDKTHTCPPCPAPEFEGGPSVFLFPPKPKDTLMISRTPEVTCVVVAVSHEDPEVKFNWYVDGVEVHNAKTKPREEQYNSTYRVVSVLTVLHQDWLNGKEYKCKVSNKALPAPIEKTISKAKGQPREPQVYTLPPSREEMTKNQVSLTCLVKGFYPSDIAVEWESNGQPENNYKTTPPVLDSDGSFFLYSRLTVDKSRWQQGNVFSCSVMHEALHNHYTQKSLSLSPGK
light: SYELTQPPSVSVSPGHTARITCSGDALPKKYASWFQQKSGQAPVLVIYEDSKRPSGIPERFSGSTSGTMATLTISGAQVEDETDYYCYSADTSGTHRVFGGGTKLTVLGQPKAAPSVTLFPPSSEELQANKATLVCLISDFYPGAVTVAWKADSSPVKAGVETTTPSKQSNNKYAASSYLSLTPEQWKSHRSYSCQVTHEGSTVEKTVAPTECS
binding result [17]: no binding | binding result [18]: binds | EC50 (read off the curve) [19]: ~0.3 µg/mL

B4: IgG1-632-FEAR (antibody, V domains shown)
VH: QVQLVESGGGLVKPGGSLRLSCAASGFTFSDYYMSWIRQAPGKGLEWVSYIGSSSNTIYYADSVKGRFTISRDNAKNSLYLQMNSLRAEDTAVYSCARDRVKYGSPGSLFDYWGQGTLVTVSS
VL: SYELTQPPSVSVSPGQTARITCSGDALPKKYAFWYQQKSGQAPVLVIYEDSKRPSGIPERFSGSSSGTMATLTISGAQVEDEADYYCYSTASSGDHRVFGGGTKLTVL
association response of the second antibody [1]: 0 nm | association response of the second antibody [2]: 0.7 nm | association response of the second antibody [3]: 0 nm | association response of the second antibody [4]: 1.1 nm | association response of the second antibody [5]: 0.2 nm | association response of the second antibody [6]: 0 nm

B5: IgG1-321-FEAR (antibody, V domains shown)
VH: EVQLVESGGGLVQPGGSLRLSCAASGFTFSSYWMSWVRQAPGKGLEWVANIKQDGNEKYYVDSVKGRFTISRDNAKNSLYVQMNSLRAEDTAVYYCARDLYYGSGTYPPFDYWGQGTLVTVSS
VL: DIQMTQSPSTLSASVGDRVTITCRASQSISSWLAWYLQKPGKAPKLLIYKASSLESGVPSRFSGSGSGTEFTLTISSLQPDDFATYYCQQYHSSSYTFGQGTKLEIK
association response of the second antibody [7]: 0 nm | association response of the second antibody [8]: 0 nm | association response of the second antibody [9]: 0 nm | association response of the second antibody [11]: 0 nm | association response of the second antibody [12]: 0 nm | association response of the second antibody [3]: 0 nm | association response of the second antibody [4]: 1.1 nm | association response of the second antibody [13]: 0.6 nm | association response of the second antibody [14]: -0.1 nm
